Experimental findings from US20170360931A1 (UNIVERSITY OF CHICAGO, published 2017) are described below.

Common to all, as to assay: cell-based or functional assay
In experiment [1] the target is HA of wild type A/Shanghai/1/2013 (H7N9) virus (influenza A virus A/Shanghai/1/2013 …).
Experiment [2] deals with HA of A/California/04/2009 (H1N1) virus (influenza A virus A/California/04/2009 …).
Experiment [3] concerns the target HA of A/chicken/Jalisco/12283/12 (H7N3) virus (influenza A virus …).

B1: 045-051310-2B06 (antibody, V domains shown)
VH: QVQLVQSGPEMKKPGASVKVSCKTSGYRFTRYGISWVRQAPGRGLEWLGWISAYSGDTYYGQKFQDRVTMTTDRATSTAYMELRNLGSDDSAVYFCARDHVQGEVSIYYYAMDVWGEGTTVTVSS
VL: EIVLTQSPATLSLSPGERVTLSCRASESVGNKLAWFQQRPGQAPRLLIYNASNRATDIPARFSGSGSGTDFTLTISSLQPEDFAVYYCQQRGTWPRGLITFGQGTRLEIK
Consider B1, for which the “PRNT50 (plaque reduction assay)” value turned out to be 19 µg/mL in experiment [1], 5.5 µg/mL in experiment [2] and 18 µg/mL in experiment [3].
